In FireProtDB:
Values joined by “and” are separate entries in the source; they are usually repeats but may differ in a detail not shown here. Identical values can stand only once.

Conditions: whole UniProt chain shown
[1] = Escherichia coli (strain K12), pH 7.8, 23 °C, Urea, Fluorescence, Tris-HCl 10 mM, NaCl 100 mM, reversible: yes
[2] = Escherichia coli, pH 5, 23 °C, Urea, DSC, Acetic acid/MES/Tris 50 mM/50 mM/100 mM/, reversible: yes
[3] = Escherichia coli, pH 8, Thermal, DSC, Tris/MES/Acetic acid 100 mM/50 mM/50 mM/, reversible: yes
[4] = Fusarium vanettenii, pH 9, Thermal, DSC, Tris 10 mM, NaCl 40 mM, reversible: no
[5] = Gallus gallus, pH 7.4, 25 °C, GdnHCl, CD, Tris 50 mM, KCl 100 mM, reversible: yes

B1: Outer membrane porin F wild type, P02931 (protein)
chain: MMKRNILAVIVPALLVAGTANAAEIYNKDGNKVDLYGKAVGLHYFSKGNGENSYGGNGDMTYARLGFKGETQINSDLTGYGQWEYNFQGNNSEGADAQTGNKTRLAFAGLKYADVGSFDYGRNYGVVYDALGYTDMLPEFGGDTAYSDDFFVGRVGGVATYRNSNFFGLVDGLNFAVQYLGKNERDTARRSNGDGVGGSISYEYEGFGIVGAYGAADRTNLQEAQPLGNGKKAEQWATGLKYDANNIYLAANYGETRNATPITNKFTNTSGFANKTQDVLLVAQYQFDFGLRPSIAYTKSKAKDVEGIGDVDLVNYFEVGATYYFNKNMSTYVDYIINQIDSDNKLGVGSDDTVAVGIVYQF
For B1, the Tm (Escherichia coli (strain K12), pH 7.5, Thermal, CD, Tris 50mM) was 79.3 °C.

B2: Ribose import binding protein RbsB wild type, P02925 (protein)
chain: MNMKKLATLVSAVALSATVSANAMAKDTIALVVSTLNNPFFVSLKDGAQKEADKLGYNLVVLDSQNNPAKELANVQDLTVRGTKILLINPTDSDAVGNAVKMANQANIPVITLDRQATKGEVVSHIASDNVLGGKIAGDYIAKKAGEGAKVIELQGIAGTSAARERGEGFQQAVAAHKFNVLASQPADFDRIKGLNVMQNLLTAHPDVQAVFAQNDEMALGALRALQTAGKSDVMVVGFDGTPDGEKAVNDGKLAATIAQLPDQIGAKGVETADKVLKGEKVQAKYPVDLKLVVKQ
For B2, the unfolding free energy (Escherichia coli (strain K12), pH 7.7, 25 °C, GdnHCl, Fluorescence, HEPES 10 mM, reversible: yes) was 5.1 kcal/mol.

B3: ATP-dependent 6-phosphofructokinase isozyme 2 wild type, P06999 (protein)
chain: MVRIYTLTLAPSLDSATITPQIYPEGKLRCTAPVFEPGGGGINVARAIAHLGGSATAIFPAGGATGEHLVSLLADENVPVATVEAKDWTRQNLHVHVEASGEQYRFVMPGAALNEDEFRQLEEQVLEIESGAILVISGSLPPGVKLEKLTQLISAAQKQGIRCIVDSSGEALSAALAIGNIELVKPNQKELSALVNRELTQPDDVRKAAQEIVNSGKAKRVVVSLGPQGALGVDSENCIQVVPPPVKSQSTVGAGDSMVGAMTLKLAENASLEEMVRFGVAAGSAATLNQGTRLCSHDDTQKIYAYLSR
B3 gave an unfolding free energy (Escherichia coli (strain K12), pH 7.8, 20 °C, GdnHCl, Activity, Tris 50 mM, Magnesiun chloride 5 mM, reversible: Yes) of 12.1 kcal/mol, an unfolding free energy (Escherichia coli (strain K12), pH 7.8, 20 °C, GdnHCl, CD, Tris 50 mM, Magnesiun chloride 5 mM, reversible: Yes) of 12.2 kcal/mol and an unfolding free energy (Escherichia coli (strain K12), pH 7.8, 20 °C, GdnHCl, Fluorescence, Tris 50 mM, Magnesiun chloride 5 mM, reversible: Yes) of 11.9 kcal/mol.

B4: Co-chaperonin GroES wild type, P0A6F9 (protein)
chain: MNIRPLHDRVIVKRKEVETKSAGGIVLTGSAAAKSTRGEVLAVGNGRILENGEVKPLDVKVGDIVIFNDGYGVKSEKIDNEEVLIMSESDILAIVEA
Work on B4 yielded a denaturant m value [1] of 1.83 kcal/mol/M and an unfolding free energy [1] of 5.77 kcal/mol.

B5: Aspartate carbamoyltransferase catalytic subunit wild type, P0A786 (protein)
chain: MANPLYQKHIISINDLSRDDLNLVLATAAKLKANPQPELLKHKVIASCFFEASTRTRLSFETSMHRLGASVVGFSDSANTSLGKKGETLADTISVISTYVDAIVMRHPQEGAARLATEFSGNVPVLNAGDGSNQHPTQTLLDLFTIQETQGRLDNLHVAMVGDLKYGRTVHSLTQALAKFDGNRFYFIAPDALAMPQYILDMLDEKGIAWSLHSSIEEVMAEVDILYMTRVQKERLDPSEYANVKAQFVLRASDLHNAKANMKVLHPLPRVDEIATDVDKTPHAWYFQQAGNGIFARQALLALVLNRDLVL
B5 gave an unfolding free energy (Escherichia coli (strain K12), pH 8.3, 7.5 °C, Urea, Absorbance, HEPES 0.1 M, reversible: yes) of 2 kcal/mol.

B6: Glutamine-binding periplasmic protein wild type, P0AEQ3 (protein)
chain: MKSVLKVSLAALTLAFAVSSHAADKKLVVATDTAFVPFEFKQGDKYVGFDVDLWAAIAKELKLDYELKPMDFSGIIPALQTKNVDLALAGITITDERKKAIDFSDGYYKSGLLVMVKANNNDVKSVKDLDGKVVAVKSGTGSVDYAKANIKTKDLRQFPNIDNAYMELGTNRADAVLHDTPNILYFIKTAGNGQFKAVGDSLEAQQYGIAFPKGSDELRDKVNGALKTLRENGTYNEIYKKWFGTEPK
In the case of B6, the Tm (Escherichia coli (strain K12), pH 8.3, Thermal, Absorbance, Tris-HCl 10 mM) is reported as 63.1 °C and 66.2 °C.

B7: Colicin-A wild type, Q47108 (protein)
chain: VAEKAKDERELLEKTSELIAGMGDKIGEHLGDKYKAIAKDIADNIKNFQGKTIRSFDDAMASLNKITANPAMKINKADRDALVNAWKHVDAQDMANKLGNLSKAFKVADVVMKVEKVREKSIEGYETGNWGPLMLEVESWVLSGIASSVALGIFSATLGAYALSLGVPAIAVGIAGILLAAVVGALIDDKFADALNNEIIRPAH
With B7 the Tm (Escherichia coli, pH 3, Thermal, DSC, Na2HPO4-citrate 30 mM, reversible: no) was 39 °C, the Tm (Escherichia coli, pH 3.5, Thermal, DSC, Na2HPO4-citrate 30 mM, reversible: no) was 49 °C and the Tm (Escherichia coli, pH 4, Thermal, DSC, Na2HPO4-citrate 30 mM, reversible: no) was 56 °C. It also gave a Tm (Escherichia coli, pH 7, Thermal, DSC, Na2HPO4-citrate 30 mM, reversible: no) of 69 °C and a Tm (Escherichia coli, pH 8, Thermal, DSC, Na2HPO4-citrate 30 mM, reversible: no) of 67 °C.

B8: Dihydrofolate reductase type 2 wild type, P00383 (protein)
chain: MERSSNEVSNPVAGNFVFPSNATFGMGDRVRKKSGAAWQGQIVGWYCTNLTPEGYAVESEAHPGSVQIYPVAALERIN
For B8, the denaturant m value [2] was 1.46 kcal/mol/M, the “denaturant midpoint (higher = more stable)” value [2] was 3.63 M and the unfolding free energy [2] was 13.3 kcal/mol. It also gave an unfolding free energy (Escherichia coli, pH 5, 30 °C, GdnHCl, CD, Acetic acid/MES/Tris 50 mM/50 mM/100 mM/, reversible: yes) of 15.5 kcal/mol, an unfolding free energy (Escherichia coli, pH 5, 30 °C, GdnHCl, Fluorescence, Acetic acid/MES/Tris 50 mM/50 mM/100 mM/, reversible: yes) of 13.5 kcal/mol and an unfolding free energy (Escherichia coli, pH 8, 30 °C, GdnHCl, CD, Tris/MES/Acetic acid 100 mM/50 mM/50 mM/, reversible: yes) of 9.63 kcal/mol. For the same protein, the Tm [3] was 71 °C and the “unfolding enthalpy (calorimetric)” value [3] was 307 kcal/mol.

B9: Head completion protein wild type, P68660 (protein)
chain: MTRQEELAAARAALHDLMTGKRVATVQKDGRRVEFTATSVSDLKKYIAELEVQTGMTQRRRGPAGFYV
With B9 the unfolding free energy (Escherichia phage lambda, pH 8, 25 °C, Urea, CD, Tris 10 mM, reversible: yes) was 2.91 kcal/mol and 3.27 kcal/mol and the Tm (Escherichia phage lambda, pH 8, Thermal, CD, Tris 10 mM, reversible: yes) was 71.6 °C and 71.8 °C.

B10: Cutinase 1 wild type, P00590 (protein)
chain: MKFFALTTLLAATASALPTSNPAQELEARQLGRTTRDDLINGNSASCRDVIFIYARGSTETGNLGTLGPSIASNLESAFGKDGVWIQGVGGAYRATLGDNALPRGTSSAAIREMLGLFQQANTKCPDATLIAGGYSQGAALAAASIEDLDSAIRDKIAGTVLFGYTKNLQNRGRIPNYPADRTKVFCNTGDLVCTGSLIVAAPHLAYGPDARGPAPEFLIEKVRAVRGSA
With B10 the Tm (Fusarium vanettenii, pH 4.5, Thermal, Fluorescence, Sodium acetate 25 mM, reversible: Yes) was 75 °C, the “unfolding enthalpy (calorimetric)” value [4] was 104 kcal/mol and 92.3 kcal/mol and the “unfolding enthalpy (van 't Hoff)” value [4] was 212 kcal/mol and 122 kcal/mol.

B11: Apolipoprotein A-I wild type, P08250 (protein)
chain: MRGVLVTLAVLFLTGTQARSFWQHDEPQTPLDRIRDMVDVYLETVKASGKDAIAQFESSAVGKQLDLKLADNLDTLSAAAAKLREDMAPYYKEVREMWLKDTEALRAELTKDLEEVKEKIRPFLDQFSAKWTEELEQYRQRLTPVAQELKELTKQKVELMQAKLTPVAEEARDRLRGHVEELRKNLAPYSDELRQKLSQKLEEIREKGIPQASEYQAKVMEQLSNLREKMTPLVQEFRERLTPYAENLKNRLISFLDELQKSVA
B11 showed an unfolding free energy (Gallus gallus, pH 7.4, 20 °C, GdnHCl, Fluorescence, Tris 50 mM, KCl 100 mM, reversible: yes) of 2.93 kcal/mol, a denaturant m value [5] of 2.78 kcal/mol/M and an unfolding free energy [5] of 1.86 kcal/mol.
